What was measured:
MBNL1 [1] = molecular target: T1, MBNL1 (Mus musculus, UniProt G3X9Q0 1-381); assay: EMSA; 1 mM Mg2+; competed by 30x unlabeled self; EMSA: 40 mM Tris-Cl pH 8.0, 30 mM KCl, 1 mM MgCl2, 0.01% NP-40, 1 mM DTT, 5% glycerol, 10 ug/ml BSA, 30 min room temperature; pull-down: nuclear extract in 50 mM Tris pH 7.4, 150 mM NaCl, 1 mM EDTA, 0.5% NP-40, 4 h at 4 C; conditions: protein: recombinant; tags: N-terminal 3xFLAG-2xSTREP; label: 5' 32P (probe)
T1 sequence: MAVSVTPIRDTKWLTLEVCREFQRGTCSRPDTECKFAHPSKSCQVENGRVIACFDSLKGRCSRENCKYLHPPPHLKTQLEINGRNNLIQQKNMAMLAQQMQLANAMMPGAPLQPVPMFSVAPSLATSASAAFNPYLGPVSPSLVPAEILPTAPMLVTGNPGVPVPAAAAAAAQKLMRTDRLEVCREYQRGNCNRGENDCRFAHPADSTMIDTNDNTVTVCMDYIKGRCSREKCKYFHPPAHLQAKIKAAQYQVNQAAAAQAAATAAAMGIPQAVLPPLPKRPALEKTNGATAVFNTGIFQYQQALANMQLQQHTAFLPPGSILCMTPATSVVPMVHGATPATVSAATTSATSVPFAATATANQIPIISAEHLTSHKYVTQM

Zfp106 [2] = molecular target: T2, Zfp106 (Mus musculus, UniProt O88466 1-1888); assay: competition; 30x molar excess vs r(GGGGCC)4 probe; EMSA: 40 mM Tris-Cl pH 8.0, 30 mM KCl, 1 mM MgCl2, 0.01% NP-40, 1 mM DTT, 5% glycerol, 10 ug/ml BSA, 30 min room temperature; pull-down: nuclear extract in 50 mM Tris pH 7.4, 150 mM NaCl, 1 mM EDTA, 0.5% NP-40, 4 h at 4 C; conditions: protein: recombinant, tags: N-terminal 3xFLAG-2xSTREP
Zfp106 [3] = molecular target: T2, Zfp106; assay: EMSA; 1 mM Mg2+; competed by 30x unlabeled self; EMSA: 40 mM Tris-Cl pH 8.0, 30 mM KCl, 1 mM MgCl2, 0.01% NP-40, 1 mM DTT, 5% glycerol, 10 ug/ml BSA, 30 min room temperature; pull-down: nuclear extract in 50 mM Tris pH 7.4, 150 mM NaCl, 1 mM EDTA, 0.5% NP-40, 4 h at 4 C; conditions: protein: recombinant; tags: N-terminal 3xFLAG-2xSTREP; label: 5' 32P (probe)
MBNL1 [4] = molecular target: T1, MBNL1; assay: EMSA; 1 mM Mg2+; EMSA: 40 mM Tris-Cl pH 8.0, 30 mM KCl, 1 mM MgCl2, 0.01% NP-40, 1 mM DTT, 5% glycerol, 10 ug/ml BSA, 30 min room temperature; pull-down: nuclear extract in 50 mM Tris pH 7.4, 150 mM NaCl, 1 mM EDTA, 0.5% NP-40, 4 h at 4 C; conditions: protein: recombinant; tags: N-terminal 3xFLAG-2xSTREP; label: 5' 32P (probe)

T2 sequence (O88466 whole entry): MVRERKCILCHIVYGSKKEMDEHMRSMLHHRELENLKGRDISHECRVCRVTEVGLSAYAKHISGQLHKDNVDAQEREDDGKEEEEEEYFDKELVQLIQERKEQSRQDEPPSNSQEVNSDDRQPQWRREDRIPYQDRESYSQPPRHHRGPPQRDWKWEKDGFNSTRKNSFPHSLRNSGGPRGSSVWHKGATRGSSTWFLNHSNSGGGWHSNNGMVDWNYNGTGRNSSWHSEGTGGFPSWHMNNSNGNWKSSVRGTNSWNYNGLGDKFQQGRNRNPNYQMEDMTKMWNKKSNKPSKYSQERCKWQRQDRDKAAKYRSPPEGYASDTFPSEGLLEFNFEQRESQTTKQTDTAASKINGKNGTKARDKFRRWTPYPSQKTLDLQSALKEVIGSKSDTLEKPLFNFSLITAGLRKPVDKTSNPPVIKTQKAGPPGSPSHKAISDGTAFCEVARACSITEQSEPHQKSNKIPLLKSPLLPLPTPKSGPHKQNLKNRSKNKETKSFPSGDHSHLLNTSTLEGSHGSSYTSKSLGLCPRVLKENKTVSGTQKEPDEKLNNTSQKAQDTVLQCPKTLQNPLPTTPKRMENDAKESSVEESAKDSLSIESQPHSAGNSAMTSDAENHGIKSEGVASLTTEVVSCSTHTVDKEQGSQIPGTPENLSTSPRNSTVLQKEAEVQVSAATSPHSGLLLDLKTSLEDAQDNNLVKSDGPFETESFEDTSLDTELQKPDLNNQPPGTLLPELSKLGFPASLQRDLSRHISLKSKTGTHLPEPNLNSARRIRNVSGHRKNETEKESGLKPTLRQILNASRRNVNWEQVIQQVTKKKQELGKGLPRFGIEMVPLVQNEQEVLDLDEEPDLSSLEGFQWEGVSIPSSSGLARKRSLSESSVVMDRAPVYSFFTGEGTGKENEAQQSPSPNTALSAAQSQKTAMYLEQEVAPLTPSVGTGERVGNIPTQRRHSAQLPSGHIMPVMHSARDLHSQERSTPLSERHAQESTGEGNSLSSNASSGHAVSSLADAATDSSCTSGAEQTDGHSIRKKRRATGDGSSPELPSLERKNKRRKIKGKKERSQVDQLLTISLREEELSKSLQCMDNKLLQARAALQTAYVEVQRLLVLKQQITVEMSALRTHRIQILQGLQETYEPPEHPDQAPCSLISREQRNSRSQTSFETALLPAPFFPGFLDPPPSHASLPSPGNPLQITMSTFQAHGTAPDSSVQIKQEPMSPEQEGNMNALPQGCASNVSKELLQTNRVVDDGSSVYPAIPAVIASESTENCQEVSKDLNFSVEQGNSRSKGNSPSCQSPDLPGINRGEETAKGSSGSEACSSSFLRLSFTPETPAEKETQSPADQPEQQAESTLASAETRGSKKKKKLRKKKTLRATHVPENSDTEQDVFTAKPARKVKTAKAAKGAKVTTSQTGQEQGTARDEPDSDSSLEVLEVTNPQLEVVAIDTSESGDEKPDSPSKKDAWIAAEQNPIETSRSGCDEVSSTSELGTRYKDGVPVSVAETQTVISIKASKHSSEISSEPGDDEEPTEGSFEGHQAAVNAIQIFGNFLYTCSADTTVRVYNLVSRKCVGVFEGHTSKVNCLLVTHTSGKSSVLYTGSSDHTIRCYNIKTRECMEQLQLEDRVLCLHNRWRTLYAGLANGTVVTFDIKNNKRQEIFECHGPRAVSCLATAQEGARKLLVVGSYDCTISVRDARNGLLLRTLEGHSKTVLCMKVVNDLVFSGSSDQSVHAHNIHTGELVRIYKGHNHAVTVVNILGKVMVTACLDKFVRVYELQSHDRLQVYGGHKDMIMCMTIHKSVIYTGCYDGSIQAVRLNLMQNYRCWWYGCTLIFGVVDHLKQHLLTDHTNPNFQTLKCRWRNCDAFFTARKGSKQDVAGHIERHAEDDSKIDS

CUGCUGCUGCUGCUGCUGCUGCUG (ssRNA) [r(CUG)8]
binding result (MBNL1 [1]): binds
binding result (Zfp106 [2]; label: 5' 32P (probe)): no binding

GAGGCCGGGACCGAGACCGAGGCC (ssRNA) [mutated r(GGGGCC)4 (mut)]
binding result (Zfp106 [2]): no binding

GGGGCCGGGGCCGGGGCCGGGGCC (ssRNA) [r(GGGGCC)4]
binding result (Zfp106 [3]): binds
binding result (MBNL1 [4]): no binding

AAAACCAAAACCAAAACCAAAACC (ssRNA) [r(AAAACC)4]
binding result (Zfp106 [2]): no binding

— paper PMC5283830, “Suppression of C9orf72 RNA repeat-induced neurotoxicity by the ALS-associated RNA-binding protein Zfp106”
